Assay [1] concerns the target Plasmodium vivax Duffy-Binding Protein region II (RII-PvDBP), amino acids 211-525 (Plasmodium vivax) (UniProt P22290). Nature of the assay: AUC.
Assay [2] concerns the target Plasmodium vivax Duffy-Binding Protein region II (RII-PvDBP), amino acids 211-525 (Plasmodium vivax, UniProt P22290 211-525). Nature of the assay: ITC. (In general: Isothermal titration calorimetry measures the heat released or taken up as one component is titrated into another.)

Chain of Plasmodium vivax Duffy-Binding Protein region II (RII-PvDBP), amino acids 211-525 (P22290 211-525): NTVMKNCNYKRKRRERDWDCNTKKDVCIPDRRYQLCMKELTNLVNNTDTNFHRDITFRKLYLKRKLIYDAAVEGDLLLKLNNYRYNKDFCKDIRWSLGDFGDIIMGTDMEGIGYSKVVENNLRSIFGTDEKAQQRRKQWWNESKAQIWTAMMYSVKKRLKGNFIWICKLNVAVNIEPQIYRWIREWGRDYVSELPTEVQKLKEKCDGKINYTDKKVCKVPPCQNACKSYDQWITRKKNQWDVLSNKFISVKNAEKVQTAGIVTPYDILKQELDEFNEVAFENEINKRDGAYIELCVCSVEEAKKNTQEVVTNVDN

By stoichiometry N is commonly meant a count of units in the complex or per binding partner. In assay [1], “Plasmodium vivax Duffy-Binding Protein region II (RII-PvDBP), amino acids 211-525 (from UniProt P22290 211-525) (domain or fragment)” came in with a stoichiometry N of 2.

B1: DARC1-60 (N-terminal 60 amino acids of Duffy Antigen/Receptor for Chemokines) with C4A, C51A and C54A, unsulfated (domain or fragment, UniProt Q16570 1-60, looked up)
chain: MGNALHRAELSPSTENSSQLDFEDVWNSSYGVNDSFPDGDYGANLEAAAPAHSANLLDDS
For B1, the “stoichiometry N” value in assay [2] was 1.

The record behind these values is article PMC3150435 (Nature structural & molecular biology, 2011).
